Source: US9657062B2, “Ghrelin analogues” (Zealand Pharma A/S, priority 2012, dated 2017)
The star is where a group is joined. Octanoyl = CCCCCCCC(=O)*; Octyl = CCCCCCCC*

target: human growth hormone secretagogue receptor type 1a (human, UniProt Q92847 1-366); assay: cell-based or functional assay
Sequence (Q92847 whole entry): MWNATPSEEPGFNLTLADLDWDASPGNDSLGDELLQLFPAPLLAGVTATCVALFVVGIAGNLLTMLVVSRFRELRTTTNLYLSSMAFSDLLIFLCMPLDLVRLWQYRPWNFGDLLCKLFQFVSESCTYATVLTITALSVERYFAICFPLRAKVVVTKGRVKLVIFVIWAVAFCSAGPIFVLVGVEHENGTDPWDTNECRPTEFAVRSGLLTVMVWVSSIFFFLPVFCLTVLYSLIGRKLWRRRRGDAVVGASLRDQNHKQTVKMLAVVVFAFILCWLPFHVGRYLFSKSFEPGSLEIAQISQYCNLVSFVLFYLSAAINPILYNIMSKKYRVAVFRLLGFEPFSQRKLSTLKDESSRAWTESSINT

| Binder | EC50 (nM); Ca2+ induction in HEK293 cells stably expressing the human ghrelin receptor [nM] |
| --- | --- |
| H-PSS(Octanoyl)FLSPEHQRVQQRKESKSPPAKLQPR-NH2 (SMILES CCCCCCCC(=O)OC[C@H](NC(=O)[C@H](CO)NC(=O)[C@@H]1CCCN1)C(=O)N[C@@H](Cc1ccccc1)C(=O)N[C@@H](CC(C)C)C(=O)N[C@@H](CO)C(=O)N1CCC[C@H]1C(=O)N[C@@H](CCC(=O)O)C(=O)N[C@@H](Cc1c[nH]cn1)C(=O)N[C@@H](CCC(N)=O)C(=O)N[C@@H](CCCNC(=N)N)C(=O)N[C@H](C(=O)N[C@@H](CCC(N)=O)C(=O)N[C@@H](CCC(N)=O)C(=O)N[C@@H](CCCNC(=N)N)C(=O)N[C@@H](CCCCN)C(=O)N[C@@H](CCC(=O)O)C(=O)N[C@@H](CO)C(=O)N[C@@H](CCCCN)C(=O)N[C@@H](CO)C(=O)N1CCC[C@H]1C(=O)N1CCC[C@H]1C(=O)N[C@@H](C)C(=O)N[C@@H](CCCCN)C(=O)N[C@@H](CC(C)C)C(=O)N[C@@H](CCC(N)=O)C(=O)N1CCC[C@H]1C(=O)N[C@@H](CCCNC(=N)N)C(N)=O)C(C)C) [H-PS-S(octanoyl)-FLSPEHQRVQQRKESKSPPAKLQPR-NH2] | 0.086 |
| XSSFLSPEHQRVQQRKESKKPPAKLQPR (DPro at position 1; Ser(O-octanoyl) at position 3; C-terminal -OH) [H-[DPro]-S-S(O-octanoyl)-FLSPEHQRVQQRKESKKPPAKLQPR-OH] | 0.786 |
| H-PSS(Octyl)FLSPEHQRVQQRKESKKPPAKLQPR-NH2 [H-PS-S(O-octyl)-FLSPEHQRVQQRKESKKPPAKLQPR-NH2] | 0.396 |
| H-PSS(Octanoyl)FLSPYHQRVQYRKESKKPPAYLQPR-NH2 (SMILES CCCCCCCC(=O)OC[C@H](NC(=O)[C@H](CO)NC(=O)[C@@H]1CCCN1)C(=O)N[C@@H](Cc1ccccc1)C(=O)N[C@@H](CC(C)C)C(=O)N[C@@H](CO)C(=O)N1CCC[C@H]1C(=O)N[C@@H](Cc1ccc(O)cc1)C(=O)N[C@@H](Cc1c[nH]cn1)C(=O)N[C@@H](CCC(N)=O)C(=O)N[C@@H](CCCNC(=N)N)C(=O)N[C@H](C(=O)N[C@@H](CCC(N)=O)C(=O)N[C@@H](Cc1ccc(O)cc1)C(=O)N[C@@H](CCCNC(=N)N)C(=O)N[C@@H](CCCCN)C(=O)N[C@@H](CCC(=O)O)C(=O)N[C@@H](CO)C(=O)N[C@@H](CCCCN)C(=O)N[C@@H](CCCCN)C(=O)N1CCC[C@H]1C(=O)N1CCC[C@H]1C(=O)N[C@@H](C)C(=O)N[C@@H](Cc1ccc(O)cc1)C(=O)N[C@@H](CC(C)C)C(=O)N[C@@H](CCC(N)=O)C(=O)N1CCC[C@H]1C(=O)N[C@@H](CCCNC(=N)N)C(N)=O)C(C)C) [H-PS-S(octanoyl)-FLSPYHQRVQYRKESKKPPAYLQPR-NH2] | 0.594 |
| H-PSS(Octanoyl)FLSPEHQRVQQRKESKKPPAYLQPR-NH2 (SMILES CCCCCCCC(=O)OC[C@H](NC(=O)[C@H](CO)NC(=O)[C@@H]1CCCN1)C(=O)N[C@@H](Cc1ccccc1)C(=O)N[C@@H](CC(C)C)C(=O)N[C@@H](CO)C(=O)N1CCC[C@H]1C(=O)N[C@@H](CCC(=O)O)C(=O)N[C@@H](Cc1c[nH]cn1)C(=O)N[C@@H](CCC(N)=O)C(=O)N[C@@H](CCCNC(=N)N)C(=O)N[C@H](C(=O)N[C@@H](CCC(N)=O)C(=O)N[C@@H](CCC(N)=O)C(=O)N[C@@H](CCCNC(=N)N)C(=O)N[C@@H](CCCCN)C(=O)N[C@@H](CCC(=O)O)C(=O)N[C@@H](CO)C(=O)N[C@@H](CCCCN)C(=O)N[C@@H](CCCCN)C(=O)N1CCC[C@H]1C(=O)N1CCC[C@H]1C(=O)N[C@@H](C)C(=O)N[C@@H](Cc1ccc(O)cc1)C(=O)N[C@@H](CC(C)C)C(=O)N[C@@H](CCC(N)=O)C(=O)N1CCC[C@H]1C(=O)N[C@@H](CCCNC(=N)N)C(N)=O)C(C)C) [H-PS-S(octanoyl)-FLSPEHQRVQQRKESKKPPAYLQPR-NH2] | 0.252 |
| H-PSS(Octanoyl)FLSPEHQRVQQRKESKKPPAKLQPS-NH2 (SMILES CCCCCCCC(=O)OC[C@H](NC(=O)[C@H](CO)NC(=O)[C@@H]1CCCN1)C(=O)N[C@@H](Cc1ccccc1)C(=O)N[C@@H](CC(C)C)C(=O)N[C@@H](CO)C(=O)N1CCC[C@H]1C(=O)N[C@@H](CCC(=O)O)C(=O)N[C@@H](Cc1c[nH]cn1)C(=O)N[C@@H](CCC(N)=O)C(=O)N[C@@H](CCCNC(=N)N)C(=O)N[C@H](C(=O)N[C@@H](CCC(N)=O)C(=O)N[C@@H](CCC(N)=O)C(=O)N[C@@H](CCCNC(=N)N)C(=O)N[C@@H](CCCCN)C(=O)N[C@@H](CCC(=O)O)C(=O)N[C@@H](CO)C(=O)N[C@@H](CCCCN)C(=O)N[C@@H](CCCCN)C(=O)N1CCC[C@H]1C(=O)N1CCC[C@H]1C(=O)N[C@@H](C)C(=O)N[C@@H](CCCCN)C(=O)N[C@@H](CC(C)C)C(=O)N[C@@H](CCC(N)=O)C(=O)N1CCC[C@H]1C(=O)N[C@@H](CO)C(N)=O)C(C)C) [H-PS-S(octanoyl)-FLSPEHQRVQQRKESKKPPAKLQPS-NH2] | 0.039 |
| H-PSS(Octanoyl)FLSPEHQRVQQRKESKKPPASLQPR-NH2 (SMILES CCCCCCCC(=O)OC[C@H](NC(=O)[C@H](CO)NC(=O)[C@@H]1CCCN1)C(=O)N[C@@H](Cc1ccccc1)C(=O)N[C@@H](CC(C)C)C(=O)N[C@@H](CO)C(=O)N1CCC[C@H]1C(=O)N[C@@H](CCC(=O)O)C(=O)N[C@@H](Cc1c[nH]cn1)C(=O)N[C@@H](CCC(N)=O)C(=O)N[C@@H](CCCNC(=N)N)C(=O)N[C@H](C(=O)N[C@@H](CCC(N)=O)C(=O)N[C@@H](CCC(N)=O)C(=O)N[C@@H](CCCNC(=N)N)C(=O)N[C@@H](CCCCN)C(=O)N[C@@H](CCC(=O)O)C(=O)N[C@@H](CO)C(=O)N[C@@H](CCCCN)C(=O)N[C@@H](CCCCN)C(=O)N1CCC[C@H]1C(=O)N1CCC[C@H]1C(=O)N[C@@H](C)C(=O)N[C@@H](CO)C(=O)N[C@@H](CC(C)C)C(=O)N[C@@H](CCC(N)=O)C(=O)N1CCC[C@H]1C(=O)N[C@@H](CCCNC(=N)N)C(N)=O)C(C)C) [H-PS-S(octanoyl)-FLSPEHQRVQQRKESKKPPASLQPR-NH2] | 0.183 |

Other lines, results leading:

| EC50 (nM); Ca2+ induction in HEK293 cells stably expressing the human ghrelin receptor [nM] | Binder |
| --- | --- |
| 0.719 | H-PSS(Octanoyl)FLSPYHQRVQQRKESKKPPAKLQPR-NH2 (SMILES CCCCCCCC(=O)OC[C@H](NC(=O)[C@H](CO)NC(=O)[C@@H]1CCCN1)C(=O)N[C@@H](Cc1ccccc1)C(=O)N[C@@H](CC(C)C)C(=O)N[C@@H](CO)C(=O)N1CCC[C@H]1C(=O)N[C@@H](Cc1ccc(O)cc1)C(=O)N[C@@H](Cc1c[nH]cn1)C(=O)N[C@@H](CCC(N)=O)C(=O)N[C@@H](CCCNC(=N)N)C(=O)N[C@H](C(=O)N[C@@H](CCC(N)=O)C(=O)N[C@@H](CCC(N)=O)C(=O)N[C@@H](CCCNC(=N)N)C(=O)N[C@@H](CCCCN)C(=O)N[C@@H](CCC(=O)O)C(=O)N[C@@H](CO)C(=O)N[C@@H](CCCCN)C(=O)N[C@@H](CCCCN)C(=O)N1CCC[C@H]1C(=O)N1CCC[C@H]1C(=O)N[C@@H](C)C(=O)N[C@@H](CCCCN)C(=O)N[C@@H](CC(C)C)C(=O)N[C@@H](CCC(N)=O)C(=O)N1CCC[C@H]1C(=O)N[C@@H](CCCNC(=N)N)C(N)=O)C(C)C) [H-PS-S(octanoyl)-FLSPYHQRVQQRKESKKPPAKLQPR-NH2] |
| 0.198 | H-PSS(Octanoyl)FLSPEHQRVQYRKESKKPPAKLQPR-NH2 (SMILES CCCCCCCC(=O)OC[C@H](NC(=O)[C@H](CO)NC(=O)[C@@H]1CCCN1)C(=O)N[C@@H](Cc1ccccc1)C(=O)N[C@@H](CC(C)C)C(=O)N[C@@H](CO)C(=O)N1CCC[C@H]1C(=O)N[C@@H](CCC(=O)O)C(=O)N[C@@H](Cc1c[nH]cn1)C(=O)N[C@@H](CCC(N)=O)C(=O)N[C@@H](CCCNC(=N)N)C(=O)N[C@H](C(=O)N[C@@H](CCC(N)=O)C(=O)N[C@@H](Cc1ccc(O)cc1)C(=O)N[C@@H](CCCNC(=N)N)C(=O)N[C@@H](CCCCN)C(=O)N[C@@H](CCC(=O)O)C(=O)N[C@@H](CO)C(=O)N[C@@H](CCCCN)C(=O)N[C@@H](CCCCN)C(=O)N1CCC[C@H]1C(=O)N1CCC[C@H]1C(=O)N[C@@H](C)C(=O)N[C@@H](CCCCN)C(=O)N[C@@H](CC(C)C)C(=O)N[C@@H](CCC(N)=O)C(=O)N1CCC[C@H]1C(=O)N[C@@H](CCCNC(=N)N)C(N)=O)C(C)C) [H-PS-S(octanoyl)-FLSPEHQRVQYRKESKKPPAKLQPR-NH2] |
| 0.33 | H-PSS(Octyl)FLSPEHQRVQRKESKKPPAKLQPR-NH2 (SMILES CCCCCCCCOC[C@H](NC(=O)[C@H](CO)NC(=O)[C@@H]1CCCN1)C(=O)N[C@@H](Cc1ccccc1)C(=O)N[C@@H](CC(C)C)C(=O)N[C@@H](CO)C(=O)N1CCC[C@H]1C(=O)N[C@@H](CCC(=O)O)C(=O)N[C@@H](Cc1c[nH]cn1)C(=O)N[C@@H](CCC(N)=O)C(=O)N[C@@H](CCCNC(=N)N)C(=O)N[C@H](C(=O)N[C@@H](CCC(N)=O)C(=O)N[C@@H](CCCNC(=N)N)C(=O)N[C@@H](CCCCN)C(=O)N[C@@H](CCC(=O)O)C(=O)N[C@@H](CO)C(=O)N[C@@H](CCCCN)C(=O)N[C@@H](CCCCN)C(=O)N1CCC[C@H]1C(=O)N1CCC[C@H]1C(=O)N[C@@H](C)C(=O)N[C@@H](CCCCN)C(=O)N[C@@H](CC(C)C)C(=O)N[C@@H](CCC(N)=O)C(=O)N1CCC[C@H]1C(=O)N[C@@H](CCCNC(=N)N)C(N)=O)C(C)C) [H-PS-S(O-octyl)-FLSPEHQRVQRKESKKPPAKLQPR-NH2] |
| 0.095 | H-PSS(Octanoyl)FLSPEHQRVQQRKESSKPPAKLQPR-NH2 (SMILES CCCCCCCC(=O)OC[C@H](NC(=O)[C@H](CO)NC(=O)[C@@H]1CCCN1)C(=O)N[C@@H](Cc1ccccc1)C(=O)N[C@@H](CC(C)C)C(=O)N[C@@H](CO)C(=O)N1CCC[C@H]1C(=O)N[C@@H](CCC(=O)O)C(=O)N[C@@H](Cc1c[nH]cn1)C(=O)N[C@@H](CCC(N)=O)C(=O)N[C@@H](CCCNC(=N)N)C(=O)N[C@H](C(=O)N[C@@H](CCC(N)=O)C(=O)N[C@@H](CCC(N)=O)C(=O)N[C@@H](CCCNC(=N)N)C(=O)N[C@@H](CCCCN)C(=O)N[C@@H](CCC(=O)O)C(=O)N[C@@H](CO)C(=O)N[C@@H](CO)C(=O)N[C@@H](CCCCN)C(=O)N1CCC[C@H]1C(=O)N1CCC[C@H]1C(=O)N[C@@H](C)C(=O)N[C@@H](CCCCN)C(=O)N[C@@H](CC(C)C)C(=O)N[C@@H](CCC(N)=O)C(=O)N1CCC[C@H]1C(=O)N[C@@H](CCCNC(=N)N)C(N)=O)C(C)C) [H-PS-S(octanoyl)-FLSPEHQRVQQRKESSKPPAKLQPR-NH2] |
